We go through one molecule from patent EP4484444A1.

This assay deals with T1, recombinant human PCPE-2 (procollagen C-proteinase enhancer 2) fused to a 6 Histidine-tag at the N-terminus (human) (UniProt Q9UKZ9).
T1 sequence: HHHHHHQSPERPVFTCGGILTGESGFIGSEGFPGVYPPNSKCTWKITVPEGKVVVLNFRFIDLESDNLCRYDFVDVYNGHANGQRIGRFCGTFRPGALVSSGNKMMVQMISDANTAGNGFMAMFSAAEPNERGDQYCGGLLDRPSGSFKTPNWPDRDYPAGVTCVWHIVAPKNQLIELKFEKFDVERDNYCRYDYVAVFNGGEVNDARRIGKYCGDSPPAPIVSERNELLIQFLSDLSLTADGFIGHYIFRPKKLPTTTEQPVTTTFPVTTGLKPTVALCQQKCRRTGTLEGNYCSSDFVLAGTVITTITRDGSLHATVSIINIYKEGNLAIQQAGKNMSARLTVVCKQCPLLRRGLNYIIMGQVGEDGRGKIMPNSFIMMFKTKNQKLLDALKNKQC
Nature of the assay: SPR competition: BMP-1 (200 nM) co-injected with PCPE-2 (200 nM) over immobilized C-propeptide III carrying PCPE-2.

As a reminder, the % inhibition is how much of the control response was suppressed.

B1: human BMP-1 (bone morphogenetic protein-1) fused to a C-terminal Flag tag (enzyme, UniProt P13497-2 121-730, looked up, not shown: small tags and cut ends)
chain: AATSRPERVWPDGVIPFVIGGNFTGSQRAVFRQAMRHWEKHTCVTFLERTDEDSYIVFTYRPCGCCSYVGRRGGGPQAISIGKNCDKFGIVVHELGHVVGFWHEHTRPDRDRHVSIVRENIQPGQEYNFLKMEPQEVESLGETYDFDSIMHYARNTFSRGIFLDTIVPKYEVNGVKPPIGQRTRLSKGDIAQARKLYKCPACGETLQDSTGNFSSPEYPNGYSAHMHCVWRISVTPGEKIILNFTSLDLYRSRLCWYDYVEVRDGFWRKAPLRGRFCGSKLPEPIVSTDSRLWVEFRSSSNWVGKGFFAVYEAICGGDVKKDYGHIQSPNYPDDYRPSKVCIWRIQVSEGFHVGLTFQSFEIERHDSCAYDYLEVRDGHSESSTLIGRYCGYEKPDDIKSTSSRLWLKFVSDGSINKAGFAVNFFKEVDECSRPNRGGCEQRCLNTLGSYKCSCDPGYELAPDKRRCEAACGGFLTKLNGSITSPGWPKEYPPNKNCIWQLVAPTQYRISLQFDFFETEGNDVCKYDFVEVRSGLTADSKLHGKFCGSEKPEVITSQYNNMRVEFKSDNTVSKKGFKAHFFSEKRPALQPPRGRPHQLKFRVQKRNRTPQ
As to B1, the % inhibition came out at 77%.
